Data reported in patent US20060110796A1.

Columns and labels:
[1] = target: glycomyoglobin with β-GlcNAc-serine at position 4 (Gly4TAG mutant myoglobin, C-terminal His6 tag) (UniProt P02185); assay: ELISA-like lectin binding assay; 200 ng myoglobin immobilized, biotinylated BSII, streptavidin-alkaline phosphatase, pNPP, A405
[2] = target: glycomyoglobin with GalNAc-α-threonine at position 4 (myoglobin 4TAG mutant, C-terminal 6xHis tag) (UniProt P02185); assay: enzyme-linked lectin-binding assay (ELLA); 600 ng myoglobin on plate, biotinylated lectin 10 µg/mL, streptavidin-AP, pNPP, 405 nm; reference is an equivalent concentration of tyrosine-myoglobin
Chain of glycomyoglobin with GalNAc-α-threonine at position 4 (myoglobin 4TAG mutant, C-terminal 6xHis tag) (P02185 other isoform, or with tags, fused parts or gaps mutant): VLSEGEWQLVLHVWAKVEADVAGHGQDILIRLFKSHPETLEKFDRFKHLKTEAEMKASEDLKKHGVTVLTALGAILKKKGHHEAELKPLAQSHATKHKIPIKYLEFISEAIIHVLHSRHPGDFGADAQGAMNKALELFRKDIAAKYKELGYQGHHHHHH

Chain of glycomyoglobin with β-GlcNAc-serine at position 4 (Gly4TAG mutant myoglobin, C-terminal His6 tag) (P02185 other isoform, or with tags, fused parts or gaps mutant): as above
Chain of Vicia Villosa lectin (VVL), biotinylated conjugate (P56625 whole entry): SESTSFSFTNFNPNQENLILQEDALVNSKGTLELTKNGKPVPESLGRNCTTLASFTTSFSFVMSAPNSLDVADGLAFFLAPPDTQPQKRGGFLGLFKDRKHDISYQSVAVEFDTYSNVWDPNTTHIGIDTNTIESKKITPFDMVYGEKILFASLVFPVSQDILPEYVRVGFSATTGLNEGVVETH

| fold signal over wild-type myoglobin [1] | fold signal increase for glycomyoglobin versus tyrosine-myoglobin [2] | Substance |
| --- | --- | --- |
| > 200 fold |  | Bandeiraea simplicifolia II (BSII) lectin, biotinylated |
|  | 5 fold | Dolichos Biflorus lectin (DBL), biotinylated conjugate (from UniProt P05045 23-275) |
|  | 10 fold | Vicia Villosa lectin (VVL), biotinylated conjugate (from UniProt P56625 1-185) |
